Laboratory results reported in publication PMC10566545.

Target: RNAP containing His-RpoA (wild type) (Pseudomonas aeruginosa PAO1) (UniProt O52760+Q51561+Q9HWC9+Q9HTM1)
Assay: EMSA
Settings: 10 mM Tris-HCl, 50 mM KCl, 1 mM DTT, 1% glycerin, 10 mM MgCl2, 1 ug/ul poly(dI-dC), pH 7.5, room temperature, 30 min; 30 ng probe, 0.2 ug protein

Sequence of RNAP containing His-RpoA (wild type) (Pseudomonas aeruginosa PAO1) (O52760 whole entry, chain 1 of 4): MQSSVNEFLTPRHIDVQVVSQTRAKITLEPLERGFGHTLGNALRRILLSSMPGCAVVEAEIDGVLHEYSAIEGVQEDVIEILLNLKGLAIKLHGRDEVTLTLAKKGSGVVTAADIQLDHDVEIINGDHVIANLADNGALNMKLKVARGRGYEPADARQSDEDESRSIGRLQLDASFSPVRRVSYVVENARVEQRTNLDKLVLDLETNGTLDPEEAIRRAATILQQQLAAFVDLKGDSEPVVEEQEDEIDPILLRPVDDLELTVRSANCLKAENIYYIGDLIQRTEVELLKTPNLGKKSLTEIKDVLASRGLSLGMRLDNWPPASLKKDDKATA
Sequence of RNAP containing His-RpoA (wild type) (Pseudomonas aeruginosa PAO1) (Q51561 whole entry, chain 2 of 4): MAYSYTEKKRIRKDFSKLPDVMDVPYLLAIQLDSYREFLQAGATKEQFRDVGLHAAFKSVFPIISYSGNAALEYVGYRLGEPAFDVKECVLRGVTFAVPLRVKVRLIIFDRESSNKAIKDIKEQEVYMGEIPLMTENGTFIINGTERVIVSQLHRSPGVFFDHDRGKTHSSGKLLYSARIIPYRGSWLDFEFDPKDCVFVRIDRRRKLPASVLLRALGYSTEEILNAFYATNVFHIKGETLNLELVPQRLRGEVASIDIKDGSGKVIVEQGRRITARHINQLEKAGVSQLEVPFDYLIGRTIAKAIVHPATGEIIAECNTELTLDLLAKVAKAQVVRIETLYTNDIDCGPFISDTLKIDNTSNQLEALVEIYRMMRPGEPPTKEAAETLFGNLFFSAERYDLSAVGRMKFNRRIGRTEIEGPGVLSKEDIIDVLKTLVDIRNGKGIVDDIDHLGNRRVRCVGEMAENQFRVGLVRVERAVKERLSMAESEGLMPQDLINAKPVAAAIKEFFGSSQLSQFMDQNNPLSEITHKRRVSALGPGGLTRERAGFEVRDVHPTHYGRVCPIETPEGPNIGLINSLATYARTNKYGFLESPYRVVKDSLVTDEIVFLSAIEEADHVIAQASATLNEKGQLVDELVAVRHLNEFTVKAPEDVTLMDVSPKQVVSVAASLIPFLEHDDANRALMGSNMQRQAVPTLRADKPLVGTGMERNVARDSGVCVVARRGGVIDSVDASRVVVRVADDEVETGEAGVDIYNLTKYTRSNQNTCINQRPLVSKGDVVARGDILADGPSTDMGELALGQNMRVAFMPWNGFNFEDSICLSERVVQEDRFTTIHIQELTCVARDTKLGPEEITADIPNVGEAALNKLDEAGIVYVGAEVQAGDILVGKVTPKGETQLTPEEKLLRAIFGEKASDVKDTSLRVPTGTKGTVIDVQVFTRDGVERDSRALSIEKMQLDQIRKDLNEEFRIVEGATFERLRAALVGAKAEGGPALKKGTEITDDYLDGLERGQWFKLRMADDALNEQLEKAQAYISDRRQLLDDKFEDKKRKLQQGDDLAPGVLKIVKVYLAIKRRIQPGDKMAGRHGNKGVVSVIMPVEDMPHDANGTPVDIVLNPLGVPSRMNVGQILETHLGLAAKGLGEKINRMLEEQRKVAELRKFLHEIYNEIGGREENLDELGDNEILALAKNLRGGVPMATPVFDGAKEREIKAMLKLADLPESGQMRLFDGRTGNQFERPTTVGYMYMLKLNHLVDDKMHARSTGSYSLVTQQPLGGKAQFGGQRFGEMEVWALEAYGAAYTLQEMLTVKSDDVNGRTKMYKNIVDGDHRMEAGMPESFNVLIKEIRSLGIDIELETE
Sequence of RNAP containing His-RpoA (wild type) (Pseudomonas aeruginosa PAO1) (Q9HWC9 whole entry, chain 3 of 4): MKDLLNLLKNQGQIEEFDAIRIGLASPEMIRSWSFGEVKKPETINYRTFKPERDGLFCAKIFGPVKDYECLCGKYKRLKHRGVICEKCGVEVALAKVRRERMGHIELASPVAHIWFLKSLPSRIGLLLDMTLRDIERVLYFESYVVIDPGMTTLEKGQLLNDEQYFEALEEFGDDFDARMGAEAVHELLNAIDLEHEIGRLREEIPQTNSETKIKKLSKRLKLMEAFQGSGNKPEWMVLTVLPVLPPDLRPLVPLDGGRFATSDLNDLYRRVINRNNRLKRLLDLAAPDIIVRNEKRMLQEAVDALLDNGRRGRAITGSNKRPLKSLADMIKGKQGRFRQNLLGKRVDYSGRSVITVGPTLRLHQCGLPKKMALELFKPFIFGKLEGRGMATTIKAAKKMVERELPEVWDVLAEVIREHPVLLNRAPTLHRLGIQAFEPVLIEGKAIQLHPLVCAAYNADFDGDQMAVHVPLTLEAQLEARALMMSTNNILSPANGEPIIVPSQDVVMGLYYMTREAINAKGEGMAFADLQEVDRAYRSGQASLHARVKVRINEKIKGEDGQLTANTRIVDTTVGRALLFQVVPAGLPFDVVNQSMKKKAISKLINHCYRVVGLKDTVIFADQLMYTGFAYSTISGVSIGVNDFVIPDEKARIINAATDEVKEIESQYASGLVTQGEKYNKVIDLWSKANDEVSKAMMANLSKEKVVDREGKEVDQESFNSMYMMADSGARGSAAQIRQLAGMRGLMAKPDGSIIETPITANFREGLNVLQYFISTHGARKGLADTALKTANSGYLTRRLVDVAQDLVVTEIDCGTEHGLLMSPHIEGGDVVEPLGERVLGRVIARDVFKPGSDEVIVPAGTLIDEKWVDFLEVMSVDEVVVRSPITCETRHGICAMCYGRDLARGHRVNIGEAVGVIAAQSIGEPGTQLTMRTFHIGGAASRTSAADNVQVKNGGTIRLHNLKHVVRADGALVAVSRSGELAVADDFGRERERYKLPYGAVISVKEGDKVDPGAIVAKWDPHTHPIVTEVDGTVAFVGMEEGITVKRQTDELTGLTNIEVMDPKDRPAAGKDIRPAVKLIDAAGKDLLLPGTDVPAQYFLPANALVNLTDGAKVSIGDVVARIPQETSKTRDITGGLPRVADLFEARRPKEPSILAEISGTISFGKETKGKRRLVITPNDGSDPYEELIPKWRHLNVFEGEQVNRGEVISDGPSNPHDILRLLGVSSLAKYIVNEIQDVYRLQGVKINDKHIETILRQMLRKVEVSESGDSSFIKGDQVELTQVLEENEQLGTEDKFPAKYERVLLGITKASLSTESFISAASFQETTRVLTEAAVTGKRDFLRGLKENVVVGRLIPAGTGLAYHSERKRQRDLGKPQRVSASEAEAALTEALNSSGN
Sequence of RNAP containing His-RpoA (wild type) (Pseudomonas aeruginosa PAO1) (Q9HTM1 whole entry, chain 4 of 4): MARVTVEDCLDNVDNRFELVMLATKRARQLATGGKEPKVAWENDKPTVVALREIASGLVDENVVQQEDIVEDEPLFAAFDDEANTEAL

AGTCTCTGAGCCCTCCGGCAGCTACCCGCACGAGGCGTCGCAACGGGAAAATCGATCGCGCGCCGCGGGTGTGCGGCTTATTCCATCGAAAGCACTGTCCATAACCATCGACTGTTACAGAAAACGAAAAACCATGTATCACTGTTCGTGATAATCAAAATCTCGTCGTTCGATTAGTTCCCTGCCGGAGCAGCCCGCAGACTTCGCCAATCCCGAAAAACCGACTGGCGGAGTCAAGCATGGTTTTTT (double strand) [PmexE probe (mexEF-oprN promoter)]
binding: binds
